Changes are numbered by the printed parent chain.
B1: IL6R-P630/IL6R-L (antibody, human IgG1, kappa)
heavy: QVQLQESGPGLVKPSETLSLTCAVSGHSISHDHAWSWVRQPPGEGLEWIGFISYSGITNYNPSLQGRVTISRDNSKNTLYLQMNSLRAEDTAVYYCARSLARTTAMDYWGEGTLVTVSSASTKGPSVFPLAPSSKSTSGGTAALGCLVKDYFPEPVTVSWNSGALTSGVHTFPAVLQSSGLYSLSSVVTVPSSSLGTQTYICNVNHKPSNTKVDKKVEPKSCDKTHTCPPCPAPDLLGGDSVFLFPPKPKDTLMISRTPEVTCVVIKVAEEDGEVKFNWYVDGVEVHNAKTKPREEQYNSTYRVVSVLTVLHQDWLNGKEYKCKVSNKALPAPIEKTISKAKGQPREPQVYTLPPSRDELTKNQVSLTCLVKGFYPSDIAVEWESNGQPENNYKTTPPVLDSDGSFFLYSKLTVDKSRWQQGNVFSCSVMHEALHNHYTQKSLSLSP
light: not shown
B2: IL6R-P613/IL6R-L (antibody, human IgG1, kappa)
heavy: B1 heavy with L237A, K267D
light: not shown
B3: IL6R-P609/IL6R-L (antibody, human IgG1, kappa)
heavy: B1 heavy with L236A, K267D
light: not shown
B4: IL6R-P640/IL6R-L (antibody, human IgG1, kappa)
heavy: B1 heavy with L236K, G239D, K267D, Y298D, A332R, P398M
light: not shown
B5: IL6R-P643/IL6R-L (antibody, human IgG1, kappa)
heavy: B1 heavy with G239R, K267D, Y298D, A332R, P398M
light: not shown
B6: IL6R-P639/IL6R-L (antibody, human IgG1, kappa)
heavy: B1 heavy with L236N, G239D, K267D, Y298D, A332R, P398M
light: not shown
B7: IL6R-P635/IL6R-L (antibody, human IgG1, kappa)
heavy: B1 heavy with K267D, A269K
light: not shown
B8: IL6R-P628/IL6R-L (antibody, human IgG1, kappa)
heavy: B1 heavy with G239R, K267D
light: not shown
B9: IL6R-P616/IL6R-L (antibody, human IgG1, kappa)
heavy: B1 heavy with L236A, L237A, K267D
light: not shown
B10: IL6R-P611/IL6R-L (antibody, human IgG1, kappa)
heavy: B1 heavy with L236A, G239D, K267D, Y298D, A332R, P398M
light: not shown
B11: IL6R-P632/IL6R-L (antibody, human IgG1, kappa)
heavy: B1 heavy with K267R
light: not shown
B12: IL6R-P701/IL6R-L (antibody, human IgG1, kappa)
heavy: B1 heavy with L236N, K267D, A269R
light: not shown
B13: IL6R-P617/IL6R-L (antibody, human IgG1, kappa)
heavy: B1 heavy with L236A, L237A, G239D, K267D, Y298D, A332R, P398M
light: not shown
B14: IL6R-P633/IL6R-L (antibody, human IgG1, kappa)
heavy: B1 heavy with K267S
light: not shown
B15: IL6R-P627/IL6R-L (antibody, human IgG1, kappa)
heavy: B1 heavy with G238Q, K267D
light: not shown
B16: IL6R-P645/IL6R-L (antibody, human IgG1, kappa)
heavy: B1 heavy with G239D, Y298D, A332R, P398M
light: not shown
B17: IL6R-P649/IL6R-L (antibody, human IgG1, kappa)
heavy: B1 heavy with G239D, K267V, Y298D, A332R, P398M
light: not shown
B18: IL6R-P624/IL6R-L (antibody, human IgG1, kappa)
heavy: B1 heavy with L236N, K267D
light: not shown
B19: IL6R-P623/IL6R-L (antibody, human IgG1, kappa)
heavy: B1 heavy with L236H, K267D
light: not shown

Each binder was assayed against T1, FcgRIIb (human, UniProt P31994 43-217) (assay: SPR, amount bound per captured antibody).
T1 construct: extracellular domain; also called FcγRIIb
T1 sequence (looked up): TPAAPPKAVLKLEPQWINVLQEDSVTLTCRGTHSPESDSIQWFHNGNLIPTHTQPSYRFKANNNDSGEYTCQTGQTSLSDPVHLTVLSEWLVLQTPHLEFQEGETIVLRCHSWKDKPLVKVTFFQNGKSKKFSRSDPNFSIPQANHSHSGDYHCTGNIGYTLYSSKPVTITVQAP
With B1 the “Relative FcgRIIb-binding Activity” value was 7.1 IL6R-G1d/IL6R-L=100.
With B2 the “Relative FcgRIIb-binding Activity” value was 120 IL6R-G1d/IL6R-L=100.
B3 was tested, and the “Relative FcgRIIb-binding Activity” value was 178 IL6R-G1d/IL6R-L=100.
For B4, the “Relative FcgRIIb-binding Activity” value was 178 IL6R-G1d/IL6R-L=100.
B5 was tested, and the “Relative FcgRIIb-binding Activity” value was 178 IL6R-G1d/IL6R-L=100.
With B6 the “Relative FcgRIIb-binding Activity” value was 184 IL6R-G1d/IL6R-L=100.
B7 was tested, and the “Relative FcgRIIb-binding Activity” value was 71.9 IL6R-G1d/IL6R-L=100.
In the case of B8, the “Relative FcgRIIb-binding Activity” value is reported as 176 IL6R-G1d/IL6R-L=100.
B9 was tested, and the “Relative FcgRIIb-binding Activity” value was 89.2 IL6R-G1d/IL6R-L=100.
With B10 the “Relative FcgRIIb-binding Activity” value was 183 IL6R-G1d/IL6R-L=100.
In the case of B11, the “Relative FcgRIIb-binding Activity” value is reported as 8 IL6R-G1d/IL6R-L=100.
In the case of B12, the “Relative FcgRIIb-binding Activity” value is reported as 47.6 IL6R-G1d/IL6R-L=100.
In the case of B13, the “Relative FcgRIIb-binding Activity” value is reported as 158 IL6R-G1d/IL6R-L=100.
B14 was tested, and the “Relative FcgRIIb-binding Activity” value was 56.4 IL6R-G1d/IL6R-L=100.
B15 was tested, and the “Relative FcgRIIb-binding Activity” value was 138 IL6R-G1d/IL6R-L=100.
B16 was tested, and the “Relative FcgRIIb-binding Activity” value was 13.7 IL6R-G1d/IL6R-L=100.
With B17 the “Relative FcgRIIb-binding Activity” value was 6.9 IL6R-G1d/IL6R-L=100.
For B18, the “Relative FcgRIIb-binding Activity” value was 173 IL6R-G1d/IL6R-L=100.
For B19, the “Relative FcgRIIb-binding Activity” value was 152 IL6R-G1d/IL6R-L=100.

The binders below were run against T2, FcgRIIaR (human, UniProt P12318 34-217) (assay: SPR, amount bound per captured antibody).
T2 construct: extracellular domain; also called FcγRIIa R type; FcγRIIa (R type)
T2 sequence (looked up): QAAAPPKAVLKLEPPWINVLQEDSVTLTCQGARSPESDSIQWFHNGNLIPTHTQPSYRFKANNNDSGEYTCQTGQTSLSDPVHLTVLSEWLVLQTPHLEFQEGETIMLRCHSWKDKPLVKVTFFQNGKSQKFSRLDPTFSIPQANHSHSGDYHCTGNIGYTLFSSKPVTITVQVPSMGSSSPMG
B1 was tested, and the “Relative FcgRIIaR-binding Activity” value was 4.1 IL6R-G1d/IL6R-L=100.
For B2, the “Relative FcgRIIaR-binding Activity” value was 61.2 IL6R-G1d/IL6R-L=100.
For B3, the “Relative FcgRIIaR-binding Activity” value was 82.6 IL6R-G1d/IL6R-L=100.
In the case of B4, the “Relative FcgRIIaR-binding Activity” value is reported as 75.1 IL6R-G1d/IL6R-L=100.
B5 was tested, and the “Relative FcgRIIaR-binding Activity” value was 58.7 IL6R-G1d/IL6R-L=100.
B6 was tested, and the “Relative FcgRIIaR-binding Activity” value was 109 IL6R-G1d/IL6R-L=100.
In the case of B7, the “Relative FcgRIIaR-binding Activity” value is reported as 6.4 IL6R-G1d/IL6R-L=100.
With B8 the “Relative FcgRIIaR-binding Activity” value was 48.1 IL6R-G1d/IL6R-L=100.
In the case of B9, the “Relative FcgRIIaR-binding Activity” value is reported as 41.8 IL6R-G1d/IL6R-L=100.
In the case of B10, the “Relative FcgRIIaR-binding Activity” value is reported as 107 IL6R-G1d/IL6R-L=100.
B11 was tested, and the “Relative FcgRIIaR-binding Activity” value was 4.1 IL6R-G1d/IL6R-L=100.
B12 was tested, and the “Relative FcgRIIaR-binding Activity” value was 7 IL6R-G1d/IL6R-L=100.
For B13, the “Relative FcgRIIaR-binding Activity” value was 49.2 IL6R-G1d/IL6R-L=100.
B14 was tested, and the “Relative FcgRIIaR-binding Activity” value was 15.3 IL6R-G1d/IL6R-L=100.
In the case of B15, the “Relative FcgRIIaR-binding Activity” value is reported as 48.5 IL6R-G1d/IL6R-L=100.
B16 was tested, and the “Relative FcgRIIaR-binding Activity” value was 5.2 IL6R-G1d/IL6R-L=100.
For B17, the “Relative FcgRIIaR-binding Activity” value was 2.9 IL6R-G1d/IL6R-L=100.
B18 was tested, and the “Relative FcgRIIaR-binding Activity” value was 67.1 IL6R-G1d/IL6R-L=100.
In the case of B19, the “Relative FcgRIIaR-binding Activity” value is reported as 44.7 IL6R-G1d/IL6R-L=100.
